In patent US20230002480A1:

How the values were obtained:
Assay in all cases: cell-based or functional assay
[1] = molecular target: HIV-1 Env of pseudovirus BJOX028000.10.3 (clade CRF01_AE (T/F)) (HIV-1)
[2] = molecular target: HIV-1 Env of pseudovirus X1254_c3 (clade G) (HIV-1)
[3] = molecular target: HIV-1 Env of pseudovirus C1080.c03 (clade CRF01_AE) (HIV-1)
[4] = molecular target: HIV-1 Env of pseudovirus T255-34 (clade CRF02_AG) (HIV-1)
[5] = molecular target: HIV-1 Env of pseudovirus X2088_c9 (clade G) (HIV-1)
[6] = molecular target: HIV-1 Env of pseudovirus T251-18 (clade CRF02_AG) (HIV-1)
[7] = molecular target: HIV-1 Env of pseudovirus R3265.c06 (clade CRF01_AE) (HIV-1)
[8] = molecular target: HIV-1 Env of pseudovirus 6244_13_B5_4576 (clade B (T/F)) (HIV-1)
[9] = molecular target: HIV-1 Env of pseudovirus Du156.12 (clade C) (HIV-1)
[10] = molecular target: HIV-1 Env of pseudovirus Ce704809221_1B3 (clade C (T/F)) (HIV-1)
[11] = molecular target: HIV-1 Env of pseudovirus 6240_08_TA5_4622 (clade B (T/F)) (HIV-1)
[12] = molecular target: HIV-1 Env of pseudovirus 6535.3 (clade B) (HIV-1)
[13] = molecular target: HIV-1 Env of pseudovirus CNE19 (clade BC) (HIV-1)
[14] = molecular target: HIV-1 Env of pseudovirus Ce703010054_2A2 (clade C (T/F)) (HIV-1)
[15] = molecular target: HIV-1 Env of pseudovirus CAP45.2.00.G3 (clade C) (HIV-1)
[16] = molecular target: HIV-1 Env of pseudovirus Q461.e2 (clade A) (HIV-1)
[17] = molecular target: HIV-1 Env of pseudovirus CAAN5342.A2 (clade B) (HIV-1)
[18] = molecular target: HIV-1 Env of pseudovirus CNE21 (clade BC) (HIV-1)
[19] = molecular target: HIV-1 Env of pseudovirus CNE17 (clade BC) (HIV-1)
[20] = molecular target: HIV-1 Env of pseudovirus Ce2010_F5 (clade C (T/F)) (HIV-1)
[21] = molecular target: HIV-1 Env of pseudovirus ZM197M.PB7 (clade C) (HIV-1)
[22] = molecular target: HIV-1 Env of pseudovirus TRJO4551.58 (clade B) (HIV-1)
[23] = molecular target: HIV-1 Env pseudovirus 231965.c01 (HIV-1)
[24] = molecular target: HIV-1 Env pseudovirus 6545.v4.c1 (HIV-1)
[25] = molecular target: HIV-1 Env pseudovirus 263-8 (HIV-1)
[26] = molecular target: HIV-1 Env pseudovirus 9004SS_A3_4 (HIV-1)
[27] = molecular target: HIV-1 Env pseudovirus BJOX028000.10.3 (HIV-1)
[28] = molecular target: HIV-1 Env pseudovirus BJOX009000.02.4 (HIV-1)
[29] = molecular target: HIV-1 Env pseudovirus BJOX010000.06.2 (HIV-1)
[30] = molecular target: HIV-1 Env pseudovirus 231966.c02 (HIV-1)
[31] = molecular target: HIV-1 Env pseudovirus X1632_S2_B10 (HIV-1)
[32] = molecular target: HIV-1 Env pseudovirus C4118.c09 (HIV-1)

Question: Which IC50, titer in TZM.bl cells [1] does the source give for 10-1074 (antibody) here?
Answer: > 50 µg/mL

Question: And the IC80, titer in TZM.bl cells [1]?
Answer: > 50 µg/mL

Question: And the IC50, titer in TZM.bl cells [2]?
Answer: 0.089 µg/mL

Question: And the IC80, titer in TZM.bl cells [2]?
Answer: 0.297 µg/mL

Question: And the IC50, titer in TZM.bl cells [3]?
Answer: > 50 µg/mL

Question: What about the IC80, titer in TZM.bl cells [3] of the same substance?
Answer: > 50 µg/mL

Question: What about the IC50, titer in TZM.bl cells [4] of the same substance?
Answer: > 50 µg/mL

Question: What about the IC80, titer in TZM.bl cells [4] of the same substance?
Answer: > 50 µg/mL

Question: And the IC50, titer in TZM.bl cells [5]?
Answer: 0.003 µg/mL

Question: And the IC80, titer in TZM.bl cells [5]?
Answer: 0.014 µg/mL

Question: And the IC50, titer in TZM.bl cells [6]?
Answer: 1.08 µg/mL

Question: And the IC80, titer in TZM.bl cells [6]?
Answer: 7.39 µg/mL

Question: How did the IC50, titer in TZM.bl cells [1] turn out when 10E8 (antibody) was run?
Answer: 0.665 µg/mL

Question: What about the IC80, titer in TZM.bl cells [1] of the same substance?
Answer: 7.36 µg/mL

Question: And the IC50, titer in TZM.bl cells [7]?
Answer: > 10 µg/mL

Question: What about the IC80, titer in TZM.bl cells [7] of the same substance?
Answer: > 10 µg/mL

Question: What about the IC50, titer in TZM.bl cells [2] of the same substance?
Answer: 4.75 µg/mL

Question: What about the IC80, titer in TZM.bl cells [2] of the same substance?
Answer: > 10 µg/mL

Question: What about the IC50, titer in TZM.bl cells [3] of the same substance?
Answer: 0.061 µg/mL

Question: What about the IC80, titer in TZM.bl cells [3] of the same substance?
Answer: 0.731 µg/mL

Question: What about the IC50, titer in TZM.bl cells [4] of the same substance?
Answer: 0.778 µg/mL

Question: What about the IC80, titer in TZM.bl cells [4] of the same substance?
Answer: 4.21 µg/mL

Question: What about the IC50, titer in TZM.bl cells [5] of the same substance?
Answer: > 10 µg/mL

Question: And the IC80, titer in TZM.bl cells [5]?
Answer: > 10 µg/mL

Question: What about the IC50, titer in TZM.bl cells [6] of the same substance?
Answer: 2.36 µg/mL

Question: What about the IC80, titer in TZM.bl cells [6] of the same substance?
Answer: > 10 µg/mL

Question: What does the source list for N49P7.2 (antibody)?
Answer: IC50 [8]: 0.331 µg/mL; IC80 [8]: 1.04 µg/mL; MPI [8]: 100; IC50 [9]: 0.058 µg/mL; IC80 [9]: 0.21 µg/mL; MPI [9]: 100; IC50 [10]: 0.874 µg/mL; IC80 [10]: 3.88 µg/mL; MPI [10]: 100; IC50 [11]: 0.812 µg/mL; IC80 [11]: 2.87 µg/mL; MPI [11]: 100; IC50 [12]: 0.152 µg/mL; IC80 [12]: 0.784 µg/mL; MPI [12]: 100; IC50 [13]: 0.033 µg/mL; IC80 [13]: 0.129 µg/mL; MPI [13]: 100; IC50 [14]: 0.124 µg/mL; IC80 [14]: 0.576 µg/mL; MPI [14]: 100; IC50 [15]: 0.162 µg/mL; IC80 [15]: 2.49 µg/mL; MPI [15]: 95; IC50 [16]: 0.472 µg/mL; IC80 [16]: 2.24 µg/mL; MPI [16]: 100; IC50 [17]: 0.809 µg/mL; IC80 [17]: 2.81 µg/mL; MPI [17]: 100; IC50 [18]: 48.3 µg/mL; IC80 [18]: > 50 µg/mL; MPI [18]: 51; IC50 [19]: 0.376 µg/mL; IC80 [19]: 1.24 µg/mL; MPI [19]: 100; IC50 [20]: 0.398 µg/mL; IC80 [20]: 1.29 µg/mL; MPI [20]: 100; IC50 [21]: 0.223 µg/mL; IC80 [21]: 1.37 µg/mL; MPI [21]: 100; IC50 [22]: 0.21 µg/mL; IC80 [22]: 0.673 µg/mL; MPI [22]: 100

Question: Which IC50 [23] does the source give for N49P9 (antibody) here?
Answer: 0.253 µg/mL

Question: And the IC80 [23]?
Answer: 1.16 µg/mL

Question: And the MPI [23]?
Answer: 100

Question: What about the IC50 [24] of the same substance?
Answer: > 50 µg/mL

Question: And the IC80 [24]?
Answer: > 50 µg/mL

Question: What about the MPI [24] of the same substance?
Answer: 20

Question: And the IC50 [25]?
Answer: 0.032 µg/mL

Question: And the IC80 [25]?
Answer: 0.161 µg/mL

Question: And the MPI [25]?
Answer: 100

Question: What about the IC50 [26] of the same substance?
Answer: 0.175 µg/mL

Question: What about the IC80 [26] of the same substance?
Answer: 0.751 µg/mL

Question: And the MPI [26]?
Answer: 100

Question: What about the IC50 [27] of the same substance?
Answer: 0.031 µg/mL

Question: What about the IC80 [27] of the same substance?
Answer: 0.134 µg/mL

Question: What about the MPI [27] of the same substance?
Answer: 100

Question: What about the IC50 [28] of the same substance?
Answer: 0.727 µg/mL

Question: And the IC80 [28]?
Answer: 3.29 µg/mL

Question: What about the MPI [28] of the same substance?
Answer: 100

Question: What about the IC50 [29] of the same substance?
Answer: 0.482 µg/mL

Question: What about the IC80 [29] of the same substance?
Answer: 2.34 µg/mL

Question: What about the MPI [29] of the same substance?
Answer: 100

Question: And the IC50 [30]?
Answer: 0.074 µg/mL

Question: What about the IC80 [30] of the same substance?
Answer: 0.244 µg/mL

Question: What about the MPI [30] of the same substance?
Answer: 100

Question: What about the IC50 [31] of the same substance?
Answer: 46.7 µg/mL

Question: What about the IC80 [31] of the same substance?
Answer: > 50 µg/mL

Question: And the MPI [31]?
Answer: 51

Question: And the IC50 [32]?
Answer: 0.072 µg/mL

Question: What about the IC80 [32] of the same substance?
Answer: 0.2 µg/mL

Question: What about the MPI [32] of the same substance?
Answer: 100

Question: How did the IC50 [23] turn out when N49P9.1 (antibody) was run?
Answer: 0.474 µg/mL

Question: And the IC80 [23]?
Answer: 2.24 µg/mL

Question: What about the MPI [23] of the same substance?
Answer: 100

Question: And the IC50 [24]?
Answer: > 50 µg/mL

Question: And the IC80 [24]?
Answer: > 50 µg/mL

Question: What about the MPI [24] of the same substance?
Answer: 6

Question: And the IC50 [25]?
Answer: 0.049 µg/mL

Question: And the IC80 [25]?
Answer: 0.17 µg/mL

Question: And the MPI [25]?
Answer: 100

Question: And the IC50 [26]?
Answer: 0.323 µg/mL

Question: What about the IC80 [26] of the same substance?
Answer: 1.13 µg/mL

Question: What about the MPI [26] of the same substance?
Answer: 100

Question: What about the IC50 [27] of the same substance?
Answer: 0.04 µg/mL

Question: And the IC80 [27]?
Answer: 0.2 µg/mL

Question: What about the MPI [27] of the same substance?
Answer: 100

Question: What about the IC50 [28] of the same substance?
Answer: 0.965 µg/mL

Question: And the IC80 [28]?
Answer: 3.93 µg/mL

Question: What about the MPI [28] of the same substance?
Answer: 100

Question: And the IC50 [29]?
Answer: 0.883 µg/mL

Question: What about the IC80 [29] of the same substance?
Answer: 4.26 µg/mL

Question: And the MPI [29]?
Answer: 100

Question: And the IC50 [30]?
Answer: 0.067 µg/mL

Question: And the IC80 [30]?
Answer: 0.237 µg/mL

Question: And the MPI [30]?
Answer: 100

Question: What about the IC50 [31] of the same substance?
Answer: > 50 µg/mL

Question: And the IC80 [31]?
Answer: > 50 µg/mL

Question: What about the MPI [31] of the same substance?
Answer: 10

Question: What about the IC50 [32] of the same substance?
Answer: 0.062 µg/mL

Question: And the IC80 [32]?
Answer: 0.218 µg/mL

Question: And the MPI [32]?
Answer: 100
